We go through two molecules from patent US10526416B2, “Anti-HER3 antibodies and uses of same” (Yeda Research and Development Co. Ltd., priority 2014, dated 2020).

One assay addresses denatured form of HER3 (Homo sapiens, UniProt P21860). In words: Western blot detection of HER3 in T47D cell lysate (mAb as primary Ab). The class given is binding. The procedure: FIGS. 1A-E show hybridoma Screening and mAb Isotyping. (FIG. 1A) Mice were immunized with recombinant IgB3. (FIG. 1B) The hybridoma supernatant screening using ELISA, was performed on 96 well-plate coated with IgB3 (1 μg/ml) or with a human IgG. The plates were blocked with PBS-1% BSA and incubated for 1 h with hybridoma supernatants, followed by a second incubation for 1 h with HRP-labeled anti-mouse IgG and subsequently detected by 2,2′-azino-bis (3-ethylbenzothiazoline-6-sulfonic acid) addition. The OD at 415 nm was then measured using an ELISA microplate reader. (FIG. 1C) The second step of the screening was performed by immunoprecipitation (IP). Anti-mouse IgG beads were incubated first with the hybridoma supernatant and subsequently with total cell lysate from HER3-expressing T47D cells. (FIG. 1D) The mAbs directed to HER3 were isotyped using ELISA. […] (FIG. 1E) Finally the ability of the mAbs to detect HER3, used as primary Ab in a Western Blot experiment, was determined on cell lysate from T47D cells.
Cells were grown under specified conditions or treated as indicated. […] Antibody binding to membrane blots was detected using horseradish peroxidase-secondary antibodies (Jackson ImmunoResearch Laboratories), followed by treatment with ECL Western blotting detection reagents (GE Healthcare). […]

The target in the next assay is HER3 (Homo sapiens, UniProt P21860). In words: HER3 degradation in N87 cells (immunoblotting). The conditions noted are these: 3 h, 10 μg/ml mAb. The class given is cell-based. The procedure: (FIGS. 5A and 5B) The mAb ability to degrade HER3 after cell treatment was determined as follows. N87 cells were treated for 3 h at 37° C. with 10 μg/ml mAb. After cell lysis and protein extraction, the samples were subjected to immunoblotting with the indicated Ab. (FIG. 5C) The experiment shown in FIG. 5A was performed on 6 other cancer cell lines. (FIG. 5D) The mAb capacity to induce ADCC is reported. BXPC3-luc cells were incubated with the indicated mAbs and secondarily with human PBMC cells for 24 h. Cell killing was detected by measuring the luminescence after final addition of luciferine. *** […], ANOVA and post hoc tests.
Chain of HER3 (P21860 20-1342): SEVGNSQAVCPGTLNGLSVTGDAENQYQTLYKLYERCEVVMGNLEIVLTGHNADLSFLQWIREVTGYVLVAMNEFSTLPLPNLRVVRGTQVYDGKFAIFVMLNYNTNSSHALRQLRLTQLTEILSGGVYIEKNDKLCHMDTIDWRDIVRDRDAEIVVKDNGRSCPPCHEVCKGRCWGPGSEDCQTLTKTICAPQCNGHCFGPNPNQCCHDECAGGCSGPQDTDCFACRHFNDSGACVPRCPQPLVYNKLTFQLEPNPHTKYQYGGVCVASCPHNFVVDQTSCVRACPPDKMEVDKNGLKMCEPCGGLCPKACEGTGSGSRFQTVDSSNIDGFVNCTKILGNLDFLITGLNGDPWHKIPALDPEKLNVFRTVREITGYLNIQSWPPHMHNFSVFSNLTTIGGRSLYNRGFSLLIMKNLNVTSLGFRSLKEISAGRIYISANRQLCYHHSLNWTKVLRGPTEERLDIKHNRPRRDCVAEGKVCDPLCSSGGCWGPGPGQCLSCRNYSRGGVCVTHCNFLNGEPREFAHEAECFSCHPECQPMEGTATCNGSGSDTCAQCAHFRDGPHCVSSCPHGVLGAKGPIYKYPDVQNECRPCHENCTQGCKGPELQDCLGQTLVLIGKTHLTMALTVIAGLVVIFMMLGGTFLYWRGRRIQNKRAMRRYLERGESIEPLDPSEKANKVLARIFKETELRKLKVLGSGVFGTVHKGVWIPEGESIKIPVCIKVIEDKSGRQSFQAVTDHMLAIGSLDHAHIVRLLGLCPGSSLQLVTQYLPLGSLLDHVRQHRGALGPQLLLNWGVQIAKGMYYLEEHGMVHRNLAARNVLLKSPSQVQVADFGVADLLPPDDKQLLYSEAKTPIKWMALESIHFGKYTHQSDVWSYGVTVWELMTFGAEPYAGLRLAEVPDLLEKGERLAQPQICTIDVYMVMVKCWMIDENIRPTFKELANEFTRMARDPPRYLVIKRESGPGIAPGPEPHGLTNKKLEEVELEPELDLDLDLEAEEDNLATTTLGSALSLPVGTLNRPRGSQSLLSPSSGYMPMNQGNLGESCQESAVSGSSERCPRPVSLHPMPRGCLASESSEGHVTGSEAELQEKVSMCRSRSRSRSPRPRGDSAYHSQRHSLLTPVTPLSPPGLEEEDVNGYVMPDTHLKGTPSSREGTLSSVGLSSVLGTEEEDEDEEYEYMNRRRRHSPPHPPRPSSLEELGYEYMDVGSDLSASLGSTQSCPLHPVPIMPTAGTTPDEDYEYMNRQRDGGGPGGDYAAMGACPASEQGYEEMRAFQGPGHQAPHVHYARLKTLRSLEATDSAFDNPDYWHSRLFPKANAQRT
NG33 and NRG abilities to degrade HER3 after cell treatment were determined as follows. […]
FIGS. 12A-D show a combination of two mAbs directed to two different epitopes of HER3. […] After ah incubation, the plate was washed 4 times with KREBS buffer, and the fluorescence intensity at 610 nm was measured using a fluorescence microplate reader. […] (FIG. 12D) The combination's capacity to modulate NRG-induced phosphorylation of HER3, AKT and ERK was evaluated using N87 cells. […] The cells were then lysed, and equal quantities of lysate protein were electrophoresed before immunoblotting, as indicated. […]
The capacity of the mAbs to decrease abundance of HER3 was determined using western blotting. […]
A general note: Immunoblotting shows a protein as a band on a membrane.

Chain of denatured form of HER3 (P21860 20-1342): as above

B1: NG83: anti-HER3 mAb; light chain CDRs SEQ ID NOs: 7-9, heavy chain CDRs 10-12 (antibody, V domains shown)
VH: QIQLVQSGPELKKRGETVKISCKASGYTFTNYGMNWVRQAPGKGLKCMGWINTYAGEPTYADDFKGRFAFSLDSSASTAYLQINNLKNEDMATYFCARGGITGAMDYWGQGTSVTVSS
VL: DVVMTQKTSSLSTSLGDRVTISCRASQDIRNYLNWYQQKPDGTVKLLIYYTSRLHSGVPSRFSGSGSGTDYSLTISDLEQEDIATYFCQQGNTLPWTFGGGTKLAIK
modifications: VH chain of NG83 polypeptide; VL chain of NG83 polypeptide
As for B1, the “recognition of HER3 in western blotting” value with denatured form of HER3 was “able to recognize the denatured form of HER3”.

B2: XC252: anti-HER3 mAb generated as described in Chen X, et al. (1996); heavy and light chain SEQ ID NOs: 49 and 53 (antibody, V domains shown)
VH: EVQLQQSGAELVRPGVSVKISCKGSGYTFTDYAMHWVKQSHAKSLEWIGVISTYYGDPRDNQKFKGKATMTVDKSSSTAYMELARLTSEDSAIYYCARGDYDWYAIDYWGQGTSVTVSS
VL: DVVMTQTPLSLPVSLGDQASISCRSSQSIVHSDGNTYLEWYLQKPGQSPKLLIYKVSNRFSGVPDRFSGSGSGTDFTLKISRVEAEDLGVYYCFQGSHVPPTFGGGTKLEIK
modifications: VH chain of XC252 polypeptide; VL chain of XC252 polypeptide
Take B2: the HER3 degradation result with HER3 is listed as “caused HER3 degradation, but their impact was weaker”.
